Here are results for two molecules from article PMC11687307, “The calcium-binding protein S100A1 binds to titin’s N2A insertion sequence in a pH-dependent manner” (The Journal of General Physiology, 2024).

First the molecules themselves.
B1: S100A1 (mouse) (natural protein)
chain: MGSELESAMETLINVFHAHSGQEGDKYKLSKKELKDLLQTELSGFLDVQKDADAVDKVMKELDENGDGEVDFKEYVVLVAALTVACNNFFWETS
notes: S100A1, mouse; No tag is named; source: E. coli BL21(DE3), purified (Capto-Q anion exchange, phenyl Sepharose)
B2: UN2A, unique insertion sequence of the N2A region of titin (mouse, amino acids 8539-8655) (domain or fragment)
chain: DERKKQEKIEGDLRAMLKKTPALKKGSGEEEEIDIMELLKNVDPKEYEKYARMYGITDFRGLLQAFELLKQSQEEETHRLEIEELEKSERDEKEFEELVAFIQQRLTQTEPVTLIKD
notes: titin, mouse, UN2A region between Ig domains I80 and I81, amino acids 8539-8655; Gene synthesised by GeneArt; No tag is named; source: E. coli BL21(DE3) pLysS, purified (Capto-Q anion exchange, SEC)

What all share (conditions): both partners purified
Assay [1] addresses B2. As to the kind of experiment: SPR; UN2A immobilised on carboxyl sensor (OpenSPR), S100A1 injected; 25°C; pCa 3, pH 6.5; 1:1 model. A general note: SPR reads the build-up and loss of mass on a sensor chip optically.
The target of assay [2] is B2. As to the kind of experiment: SPR; UN2A immobilised on carboxyl sensor (OpenSPR), S100A1 injected at 5 to 100 µM; 25°C; 250 mM NaCl, 20 mM HEPES, 0.05% Tween; pCa 5, pH 7.4; 1:1 model.
For assay [3], the target named is B2. As to the kind of experiment: SPR; UN2A immobilised on carboxyl sensor (OpenSPR), S100A1 injected at 5 to 100 µM; 25°C; 250 mM NaCl, 20 mM HEPES, 0.05% Tween; pCa 3, pH 6.0; 1:1 model.
Assay [4] deals with B2. Nature of the assay: SPR; UN2A immobilised on carboxyl sensor (OpenSPR), S100A1 injected at 5 to 100 µM; 25°C; 250 mM NaCl, 20 mM HEPES, 0.05% Tween; pCa 5, pH 6.0; 1:1 model.
Assay [5] addresses B2. Nature of the assay: SPR; UN2A immobilised on carboxyl sensor (OpenSPR), S100A1 injected at 5 to 100 µM; 25°C; 250 mM NaCl, 20 mM HEPES, 0.05% Tween; pCa 3, pH 7.4; 1:1 model.
In assay [6] the target is B1. As to the kind of experiment: co-IP; purified proteins, 500 µg each, with anti-S100A1 antibody overnight at 4°C, captured on magnetic beads; 250 mM NaCl, 20 mM HEPES, 1 mM Ca^2+, pH 6; SDS-PAGE, silver staining, densitometry.

Usually Kd stands for the equilibrium constant for the complex coming apart. Higher therefore signals lower affinity. B1: the Kd in assay [1] is 9.95 µM; in assay [2], 285 µM; in assay [3] it was 5 µM; in assay [4], 174 µM; in assay [5], 21.6 µM.

As to B2, in assay [6], the “band intensity of UN2A relative to the S100A1 band (densitometry)” value came out at 25% and the “binding ratio of UN2A to S100A1 in the complex (densitometry)” value is ~0.25 UN2A per S100A1.
